Drawing on the Immune Epitope Database (IEDB), this text covers Kd for seven sequences.

One assay addresses HLA-B*18:01. Put plainly: IEDB peptide-MHC binding, purified MHC/competitive/fluorescence; filed as Kd, often an IC50 or EC50 that approximates it; ≥ and ≤ were set here for values at or beyond the usual limits of such assays. Particulars: source organism: Zaire ebolavirus.
In the next assay the target is HLA-B*46:01. The assay is described as above. Particulars: source organism: Zaire ebolavirus.
Assay [1] addresses HLA-B*15:01. The assay is described as above. The following applies: source organism: Zaire ebolavirus.
In a further assay the target is HLA-B*15:17. The assay is described as above. The following applies: source organism: Zaire ebolavirus.
For assay [2], the target named is HLA-A*69:01. Described as above. The following applies: source organism: Zaire ebolavirus.
The target in assay [3] is HLA-A*02:01. The assay is described as above. The following applies: source organism: Zaire ebolavirus.
The target in another assay is HLA-B*39:01. The description is as above. The following applies: source organism: Zaire ebolavirus.
The target in the next assay is HLA-B*57:01. The description is as above. The following applies: source organism: Zaire ebolavirus.
For another assay, the target named is HLA-B*51:01. Described as above. The following applies: source organism: Zaire ebolavirus.
In assay [4] the target is HLA-A*26:01. Described as above. Particulars: source organism: Zaire ebolavirus.
The target of the next assay is HLA-A*02:11. The experiment in a line: IEDB peptide-MHC binding, purified MHC/direct/fluorescence; filed as Kd, often an IC50 or EC50 that approximates it; ≥ and ≤ were set here for values at or beyond the usual limits of such assays. The following applies: source organism: Zaire ebolavirus.
Another assay concerns the target HLA-B*27:05. The assay is described as above.
Another assay deals with HLA-A*24:03. Described as above. The following applies: source organism: Zaire ebolavirus.
For a further assay, the target named is HLA-A*02:12. The assay is described as above. Particulars: source organism: Zaire ebolavirus.
The next assay addresses HLA-A*29:02. The assay is described as above. Particulars: source organism: Zaire ebolavirus.
The next assay deals with HLA-A*02:19. The description is as above. The following applies: source organism: Zaire ebolavirus.
A further assay concerns the target HLA-A*23:01. The assay is described as above. The following applies: source organism: Zaire ebolavirus.
For a further assay, the target named is HLA-A*02:03. Described as above. Particulars: source organism: Zaire ebolavirus.
In the next assay the target is HLA-A*02:16. Described as above. The following applies: source organism: Zaire ebolavirus.
In a further assay the target is HLA-A*68:02. The assay is described as above. Particulars: source organism: Zaire ebolavirus.
Another assay concerns the target HLA-B*15:02. Put plainly: IEDB peptide-MHC binding, purified MHC/competitive/fluorescence; filed as Kd, often an IC50 or EC50 that approximates it; ≥ and ≤ were set here for values at or beyond the usual limits of such assays.
The target of assay [5] is HLA-B*15:01. The experiment in a line: IEDB peptide-MHC binding, purified MHC/direct/fluorescence; filed as Kd, often an IC50 or EC50 that approximates it; ≥ and ≤ were set here for values at or beyond the usual limits of such assays.
A further assay has as its target HLA-A*31:01. The assay is described as above.
Another assay has as its target HLA-B*40:01. The assay is described as above.
The next assay addresses HLA-B*08:01. The assay is described as above.
The target of a further assay is HLA-B*44:02. The assay is described as above.
The target in assay [6] is HLA-A*69:01. The assay is described as above.
Assay [7] concerns the target HLA-A*02:01. Described as above.
Another assay has as its target HLA-B*73:01. The description is as above.
Assay [8] addresses HLA-A*03:01. The assay is described as above.
The next assay addresses HLA-A*11:01. The assay is described as above.
The target of a further assay is HLA-A*01:01. The description is as above.
Another assay has as its target HLA-B*07:02. The description is as above.
The next assay addresses HLA-B*35:01. Described as above. The following applies: source organism: Giardia lamblia ATCC 50803.
In a further assay the target is HLA-B*58:01. The description is as above.
Assay [9] addresses HLA-A*26:01. The assay is described as above.
For a further assay, the target named is HLA-B*27:03. Put plainly: IEDB peptide-MHC binding, purified MHC/competitive/fluorescence; filed as Kd, often an IC50 or EC50 that approximates it; ≥ and ≤ were set here for values at or beyond the usual limits of such assays. The following applies: source organism: Zaire ebolavirus.
Assay [10] concerns the target HLA-A*03:01. The description is as above. Particulars: source organism: Zaire ebolavirus.
The target in a further assay is HLA-A*30:01. The experiment in a line: IEDB peptide-MHC binding, purified MHC/direct/fluorescence; filed as Kd, often an IC50 or EC50 that approximates it; ≥ and ≤ were set here for values at or beyond the usual limits of such assays. The following applies: source organism: Brucella melitensis.
Where [11] appears, read: source organism: Giardia lamblia ATCC 50803.
Setting [12] is: source organism: Brucella melitensis.
The mark [13] stands for this setting: source organism: Brucella abortus.

pKd: −log10 of the molar value.

As for GRYNLISPK, the negative-log Kd (pKd) with HLA-B*18:01, with HLA-B*46:01, with HLA-B*15:01 [1], in the assay with HLA-B*15:17, with HLA-A*69:01 [2] and with HLA-A*02:01 [3] was not above 4.70 each time. Besides, the pKd is not above 4.70 in the assay with HLA-B*39:01; not above 4.70 with HLA-B*57:01; not above 4.70 with HLA-B*51:01; not above 4.70 with HLA-A*26:01 [4]; not above 4.70 in the assay with HLA-A*02:11; 7.13 in the assay with HLA-B*27:05 (source organism: Ebola virus - Gabon (1994-1997)). Besides, the pKd in the assay with HLA-A*24:03, with HLA-A*02:12, with HLA-A*29:02, with HLA-A*02:19, with HLA-A*23:01 and in the assay with HLA-A*02:03 was not above 4.70 each time. In addition, the negative-log Kd (pKd) with HLA-A*02:16 and with HLA-A*68:02 was not above 4.70 each time.
As for NMQESSKSF, in the assay with HLA-B*15:02 (source organism: Orientia tsutsugamushi str. Ikeda), the negative logarithm of the Kd (pKd) was 7.19.
On to NTFAAWLPM, for which, in the assay with HLA-B*15:02 (setting [11]), the pKd is 6.71.
Regarding RHIAIQVCY, the pKd is 5.47 in the assay with HLA-B*27:05 (setting [11]); 5.76 with HLA-B*15:01 [5] (setting [11]); not above 4.70 with HLA-A*31:01 (setting [11]); not above 4.70 with HLA-B*40:01 (setting [11]); not above 4.70 with HLA-B*08:01 (setting [11]); not above 4.70 with HLA-B*44:02 (setting [11]). Also, the pKd in the assay with HLA-A*69:01 [6] (setting [11]), with HLA-A*02:01 [7] (setting [11]), with HLA-B*73:01 (setting [11]), with HLA-A*03:01 [8] (setting [11]), with HLA-A*11:01 (setting [11]) and in the assay with HLA-A*01:01 (setting [11]) was not above 4.70 each time. Besides, the pKd with HLA-B*07:02 (setting [11]) was not above 4.70; with HLA-B*35:01, 5.93; in the assay with HLA-B*58:01 (setting [11]), not above 4.70; with HLA-A*26:01 [9] (setting [11]), not above 4.70.
Consider SLLHESTLK, for which the pKd with HLA-B*18:01, with HLA-B*46:01, in the assay with HLA-B*15:01 [1], in the assay with HLA-B*15:17, with HLA-B*27:03 and in the assay with HLA-A*69:01 [2] was not above 4.70 each time. Moreover, the pKd with HLA-A*02:01 [3] is not above 4.70; in the assay with HLA-A*03:01 [10], 7.62; with HLA-B*39:01, not above 4.70; with HLA-B*57:01 it was not above 4.70; in the assay with HLA-B*51:01, not above 4.70; in the assay with HLA-A*26:01 [4] it was not above 4.70. For the same sequence, the pKd in the assay with HLA-A*02:11, with HLA-A*24:03, in the assay with HLA-A*02:12, with HLA-A*29:02, in the assay with HLA-A*02:19 and with HLA-A*23:01 was not above 4.70 each time. Also, the pKd with HLA-A*02:03, with HLA-A*02:16 and with HLA-A*68:02 was not above 4.70 each time.
With SRIGAWASK, the pKd was 7.27 with HLA-B*27:05 (setting [12]); 5.90 with HLA-A*30:01; not above 4.70 in the assay with HLA-B*15:01 [5] (setting [13]); not above 4.70 with HLA-A*31:01 (setting [13]); not above 4.70 with HLA-B*40:01 (setting [13]); not above 4.70 in the assay with HLA-B*08:01 (setting [13]). Moreover, the pKd with HLA-B*44:02 (setting [13]) is not above 4.70; in the assay with HLA-A*69:01 [6] (setting [13]), not above 4.70; with HLA-A*02:01 [7] (setting [13]), not above 4.70; with HLA-B*73:01 (source organism: Brucella suis 1330), not above 4.70; in the assay with HLA-A*03:01 [8] (setting [12]), 5.23; with HLA-A*11:01 (setting [12]) it was 5.91. Also, the negative-log Kd (pKd) in the assay with HLA-A*01:01 (setting [13]), in the assay with HLA-B*07:02 (setting [13]), with HLA-B*58:01 (setting [13]) and in the assay with HLA-A*26:01 [9] (setting [13]) was not above 4.70 in each case.
Consider WLRAMPPRM, for which the negative logarithm of the Kd (pKd) in the assay with HLA-B*15:02 (source organism: Vibrio vulnificus YJ016) is not above 4.70.
